Each block holds one binder with its values, some of them ahead of it.
Tests used:
[1] = target: recombinant huCLDN18.2-Fc (human); assay: KinExA 4000, equilibrium in solution, antibody constant, huCLDN18.2-Fc titrated
[2] = target: His-tagged human Claudin-18.2 (human); assay: SPR, Biacore 8K, antibody captured by anti-human IgG (Fc), His-tagged human Claudin-18.2 as analyte
[3] = target: human CLDN18.2 expressed on cells (human); assay: cell-based or functional assay
[4] = target: human CLDN18.2 expressed on cells (human); assay: flow cytometry (geometric mean, Alexa Fluor 647 anti-human IgG Fc secondary) on CLDN18.2-expressing 293T cells

- Kd [1]: 1.7 nM
- Kd [2]: 2.05 nM
- koff [2]: 0.0014 s⁻¹
- kon [2]: 686000 M⁻¹ s⁻¹
B1: YL-G2-B (antibody, human IgG1, kappa)
heavy: EVQLQQSGPELEKPGASVKISCKASGYSFTGYKMNWVKQSNGKSLEWIGNIDPYYGGTTYNQKFKGKATLTVDKSSSTAYMQLKSLTSEDSAVYYCARYGKGNTMDYWGQGTSVTVSSASTKGPSVFPLAPSSKSTSGGTAALGCLVKDYFPEPVTVSWNSGALTSGVHTFPAVLQSSGLYSLSSVVTVPSSSLGTQTYICNVNHKPSNTKVDKRVEPKSCDKTHTCPPCPAPELVGGPSVFLLPPKPKDTLMISRTPEVTCVVVDVSHEDPEVKFNWYVDGVEVHNAKTKPPEEQYNSTLRVVSVLTVLHQDWLNGKEYKCKVSNKALPAPIEKTISKAKGQPREPQVYTLPPSREEMTKNQVSLTCLVKGFYPSDIAVEWESNGQPENNYKTTPLVLDSDGSFFLYSKLTVDKSRWQQGNVFSCSVMHEALHNHYTQKSLSLSPGK
light: DIVMTQSPSSLTVTAGEKVTMSCKSSQSLLNSGNQKNYLTWYQQRPGQPPKLLIYWASTRESGVPVRFTGSGSGTDFTLTISSVQAEDLAVYYCQNAYIYPLTFGTGTKLELKRTVAAPSVFIFPPSDEQLKSGTASVVCLLNNFYPREAKVQWKVDNALQSGNSQESVTEQDSKDSTYSLSSTLTLSKADYEKHKVYACEVTHQGLSSPVTKSFNRGEC

- Kd [1]: 3.8 nM
- Kd [2]: 1.11 nM
- koff [2]: 0.000591 s⁻¹
- kon [2]: 532000 M⁻¹ s⁻¹
B2: YL-G2-C (antibody, human IgG1, kappa)
heavy: QIQLVQSGPELRKPGETVKISCKASGFPFTTDGMSWVKQAPGKGLKWMGWINTYSGVPTYADDFKGRVAFSLETSASTAYLQIKNLKNEDTATYFCARFRRGNALDNWGQGTSVTVSSASTKGPSVFPLAPSSKSTSGGTAALGCLVKDYFPEPVTVSWNSGALTSGVHTFPAVLQSSGLYSLSSVVTVPSSSLGTQTYICNVNHKPSNTKVDKRVEPKSCDKTHTCPPCPAPELVGGPSVFLLPPKPKDTLMISRTPEVTCVVVDVSHEDPEVKFNWYVDGVEVHNAKTKPPEEQYNSTLRVVSVLTVLHQDWLNGKEYKCKVSNKALPAPIEKTISKAKGQPREPQVYTLPPSREEMTKNQVSLTCLVKGFYPSDIAVEWESNGQPENNYKTTPLVLDSDGSFFLYSKLTVDKSRWQQGNVFSCSVMHEALHNHYTQKSLSLSPGK
light: DIVMTQSPSSLTVTAGEKVTMSCKSSQSLLNSGNQKNYLTWYQQKPGQPPKLLIYWASTRESGVPDRFTGSGSGTDFTLTISSVQAEDLAIYYCQNNYFYPLTFGAGTRLELKRTVAAPSVFIFPPSDEQLKSGTASVVCLLNNFYPREAKVQWKVDNALQSGNSQESVTEQDSKDSTYSLSSTLTLSKADYEKHKVYACEVTHQGLSSPVTKSFNRGEC

- Kd [1]: 6.4 nM
- Kd [2]: 1.02 nM
- koff [2]: 0.000722 s⁻¹
- kon [2]: 707000 M⁻¹ s⁻¹
B3: YL-G2-D (antibody, human IgG1, kappa)
heavy: QLQQSGPELEKPGASVKISCKASGYSFTGYKMNWVKQSNGESLEWIGNIDPYYGDTTYTQKFKGKATFTVDTSSSTAYMQLKSLTSEDSAVYFCARYNRGNTMDYWGQGTSVTVSSASTKGPSVFPLAPSSKSTSGGTAALGCLVKDYFPEPVTVSWNSGALTSGVHTFPAVLQSSGLYSLSSVVTVPSSSLGTQTYICNVNHKPSNTKVDKRVEPKSCDKTHTCPPCPAPELVGGPSVFLLPPKPKDTLMISRTPEVTCVVVDVSHEDPEVKFNWYVDGVEVHNAKTKPPEEQYNSTLRVVSVLTVLHQDWLNGKEYKCKVSNKALPAPIEKTISKAKGQPREPQVYTLPPSREEMTKNQVSLTCLVKGFYPSDIAVEWESNGQPENNYKTTPLVLDSDGSFFLYSKLTVDKSRWQQGNVFSCSVMHEALHNHYTQKSLSLSPGK
light: DIVMTQSPSSLTVTAGEKVTLSCKSSQSLLNSGNQKNYLTWYQQRPGQPPKLLIYWASTRESGVPVRFTGSGSGADFTLTISSVQAEDLAVYFCQNAYFYPLTFGTGTKLELRRTVAAPSVFIFPPSDEQLKSGTASVVCLLNNFYPREAKVQWKVDNALQSGNSQESVTEQDSKDSTYSLSSTLTLSKADYEKHKVYACEVTHQGLSSPVTKSFNRGEC

- ADCC on KATOIII CLDN18.2 cells, LDH: EC50 (run A) [3]: 0.12 nM
- ADCC on KATOIII CLDN18.2 cells, LDH: EC50 (run B) [3]: 0.22 nM
- ADCC on KATOIII CLDN18.2 cells, LDH: EC50 (run C) [3]: 0.27 nM
- ADCC on NCI-N87 CLDN18.2 cells, LDH: EC50 (run A) [3]: 0.057 nM
- ADCC on NCI-N87 CLDN18.2 cells, LDH: EC50 (run B) [3]: 0.082 nM
- ADCC on NCI-N87 CLDN18.2 cells, LDH: EC50 (run C) [3]: 0.1 nM
- CDC on CT26 CLDN18.2 cells, LDH: EC50 (run A) [3]: 11.5 nM
- CDC on CT26 CLDN18.2 cells, LDH: EC50 (run B) [3]: 10.7 nM
- CDC on CT26 CLDN18.2 cells, LDH: EC50 (run C) [3]: 11.9 nM
- CDC on KATOIII CLDN18.2 cells, LDH: EC50 (run A) [3]: 38.1 nM
- CDC on KATOIII CLDN18.2 cells, LDH: EC50 (run B) [3]: 22.7 nM
- CDC on KATOIII CLDN18.2 cells, LDH: EC50 (run C) [3]: 27.5 nM
- EC50 (read off the curve) [4]: 0.8 µg/mL
B4: reference mAb (IMAB362, Ganymed) (antibody, INN chains, looked up, V domains shown)
VH: QVQLQQPGAELVRPGASVKLSCKASGYTFTSYWINWVKQRPGQGLEWIGNIYPSDSYTNYNQKFKDKATLTVDKSSSTAYMQLSSPTSEDSAVYYCTRSWRGNSFDYWGQGTTLTVSS
VL: DIVMTQSPSSLTVTAGEKVTMSCKSSQSLLNSGNQKNYLTWYQQKPGQPPKLLIYWASTRESGVPDRFTGSGSGTDFTLTISSVQAEDLAVYYCQNDYSYPFTFGSGTKLEIKR
- ADCC on KATOIII CLDN18.2 cells, LDH: max (% cytotoxity) (run A) [3]: 27.9%
- ADCC on KATOIII CLDN18.2 cells, LDH: max (% cytotoxity) (run B) [3]: 24.5%
- ADCC on KATOIII CLDN18.2 cells, LDH: max (% cytotoxity) (run C) [3]: 24.5%
- ADCC on NCI-N87 CLDN18.2 cells, LDH: max (% cytotoxity) (run A) [3]: 26.1%
- ADCC on NCI-N87 CLDN18.2 cells, LDH: max (% cytotoxity) (run B) [3]: 22.1%
- ADCC on NCI-N87 CLDN18.2 cells, LDH: max (% cytotoxity) (run C) [3]: 21.1%
- CDC on CT26 CLDN18.2 cells, LDH: max (% cytotoxity) (run A) [3]: 72.5%
- CDC on CT26 CLDN18.2 cells, LDH: max (% cytotoxity) (run B) [3]: 54.7%
- CDC on CT26 CLDN18.2 cells, LDH: max (% cytotoxity) (run C) [3]: 51.6%
- CDC on KATOIII CLDN18.2 cells, LDH: max (% cytotoxity) (run A) [3]: 29.7%
- CDC on KATOIII CLDN18.2 cells, LDH: max (% cytotoxity) (run B) [3]: 46%
- CDC on KATOIII CLDN18.2 cells, LDH: max (% cytotoxity) (run C) [3]: 34.9%
